Assay results reported in PMC2734569, “Functional mapping of the fission yeast DNA polymerase δ B-subunit Cdc1 by site-directed and random pentapeptide insertion mutagenesis” (BMC Molecular Biology, 2009).
Where a chain is given by its changes, count along the chain named.

Legend:
Assay in all cases: two-hybrid; LexA-Cdc1 bait (pBTM116 or pBTM116BN) with Gal4 activation domain-Cdc27 prey (pGAD2F-Cdc27) in S. cerevisiae CTY10-5d; ONPG liquid culture beta-galactosidase assay, mean of triplicates, as percent of wild-type Cdc1
Conditions in all cases: partners not purified
Cdc1-J9 = target: T1, Cdc1-J9 (Schizosaccharomyces pombe, UniProt P87324 1-462, Met-ArgGlyThrProMet-Thr)
T1 construct: Cdc1, S. pombe, with a pentapeptide inserted after residue 174; source: yeast two-hybrid fusion, in S. cerevisiae CTY10-5d
T1 sequence (looked up): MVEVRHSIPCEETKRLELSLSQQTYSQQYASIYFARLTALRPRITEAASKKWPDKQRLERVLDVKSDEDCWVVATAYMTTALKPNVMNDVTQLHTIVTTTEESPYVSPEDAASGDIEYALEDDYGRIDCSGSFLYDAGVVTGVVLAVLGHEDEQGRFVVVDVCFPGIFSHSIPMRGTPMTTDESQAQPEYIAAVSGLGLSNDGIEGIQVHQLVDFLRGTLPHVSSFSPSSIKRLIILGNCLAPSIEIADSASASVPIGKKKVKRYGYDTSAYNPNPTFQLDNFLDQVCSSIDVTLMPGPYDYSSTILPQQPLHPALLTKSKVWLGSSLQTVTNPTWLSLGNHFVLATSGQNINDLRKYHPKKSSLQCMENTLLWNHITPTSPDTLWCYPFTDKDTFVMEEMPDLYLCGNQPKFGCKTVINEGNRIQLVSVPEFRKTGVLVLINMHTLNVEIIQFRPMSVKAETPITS

Cdc1-J4 = target: T2, Cdc1-J4 (Schizosaccharomyces pombe, UniProt P87324 1-462, Ile-GlyValProArgIle-Asp)
T2 construct: Cdc1, S. pombe, with a pentapeptide inserted after residue 127; also called J5; J13; source: yeast two-hybrid fusion, in S. cerevisiae CTY10-5d
T2 sequence (looked up): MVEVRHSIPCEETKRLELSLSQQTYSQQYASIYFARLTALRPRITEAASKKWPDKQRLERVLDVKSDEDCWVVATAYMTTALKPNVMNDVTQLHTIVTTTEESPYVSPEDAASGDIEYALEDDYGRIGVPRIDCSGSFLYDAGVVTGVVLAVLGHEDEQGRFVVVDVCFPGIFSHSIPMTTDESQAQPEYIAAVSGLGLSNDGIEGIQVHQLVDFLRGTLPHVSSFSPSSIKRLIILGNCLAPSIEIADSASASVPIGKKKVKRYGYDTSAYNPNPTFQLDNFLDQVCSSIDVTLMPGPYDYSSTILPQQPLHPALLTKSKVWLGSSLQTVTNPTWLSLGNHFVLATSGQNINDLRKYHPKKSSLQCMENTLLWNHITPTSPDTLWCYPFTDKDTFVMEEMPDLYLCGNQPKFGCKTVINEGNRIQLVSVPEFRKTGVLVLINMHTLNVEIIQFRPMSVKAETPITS

Cdc1-A10 = target: T3, Cdc1-A10 (Schizosaccharomyces pombe, UniProt P87324 1-462, Asn328Ala | Pro329Ala)
T3 construct: Cdc1, S. pombe, double point mutant (A5 and A6 combined); source: yeast two-hybrid fusion, in S. cerevisiae CTY10-5d
T3 sequence (looked up): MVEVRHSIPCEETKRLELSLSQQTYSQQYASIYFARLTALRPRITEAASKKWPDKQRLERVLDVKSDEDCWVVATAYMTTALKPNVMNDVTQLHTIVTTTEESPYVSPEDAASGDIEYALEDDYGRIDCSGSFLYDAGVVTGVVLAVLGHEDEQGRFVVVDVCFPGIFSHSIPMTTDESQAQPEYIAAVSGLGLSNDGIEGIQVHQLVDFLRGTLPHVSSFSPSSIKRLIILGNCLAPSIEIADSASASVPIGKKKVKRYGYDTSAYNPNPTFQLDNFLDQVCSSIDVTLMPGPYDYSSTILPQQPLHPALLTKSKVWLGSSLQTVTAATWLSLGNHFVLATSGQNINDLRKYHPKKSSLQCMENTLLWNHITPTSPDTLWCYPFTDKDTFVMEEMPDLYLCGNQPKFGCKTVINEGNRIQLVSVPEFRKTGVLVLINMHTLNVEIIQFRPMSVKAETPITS

Cdc1-E9 = target: T4, Cdc1-E9 (Schizosaccharomyces pombe, UniProt P87324 1-462, Tyr-GlyGlyTyrProTyr-Gly)
T4 construct: Cdc1, S. pombe, with a pentapeptide inserted after residue 124; source: yeast two-hybrid fusion, in S. cerevisiae CTY10-5d
T4 sequence (looked up): T2 sequence (looked up) with R126G, I127Y, G128P, V129Y, P130G

- two-hybrid beta-galactosidase activity, % of wild-type Cdc1 (Cdc1-J9): 102%
- two-hybrid beta-galactosidase activity, % of wild-type Cdc1 (Cdc1-J4): < 1%
- two-hybrid beta-galactosidase activity, % of wild-type Cdc1 (Cdc1-A10): 72%
- two-hybrid beta-galactosidase activity, % of wild-type Cdc1 (Cdc1-E9): < 1%
B1: Cdc27 (fission yeast DNA polymerase delta C-subunit) (natural protein, Schizosaccharomyces pombe, UniProt P30261 1-372, looked up)
chain: MEEWRNFLDIKVINESSLVTVDNLSLQLDISSEKAQEYLNMFYQGNDFLYPIYLIHGQPIDDEINLEIDEESQPISNFPVLQYILCDKSSLQEKQSRLKSGYKTVIFALSSAPLSDFDELLPAVYEIREKDVLYKKEDADKYGFIFNENSVPRVLKKAPSTHSPQLSVPSKTSTIDKTDTRSTEKTKGKDIFSNARNQKGNSSRKNKKAPLENHKEKEPLLPKEEKLSEQAKRERDDLKNIMQLEDESVSTTSVHDSEDDNLDSNNFQLEIGTEAKSAAPDEPQEIIKSVSGGKRRGKRKVKKYATTKDEEGFLVTKEEEVWESFSEDENISTGTSNVVRNKPTTVNIATKKKNTAQSKPQQKSIMSFFGKK
notes: DNA polymerase delta C-subunit Cdc27, S. pombe; prey plasmid pGAD2F-Cdc27; also called pGAD2F-Cdc27; source: yeast two-hybrid fusion, in S. cerevisiae CTY10-5d
